From patent publication US20160289339A1 (IMMUNWORK, published 2016) come the findings set out here.

In assay [1] the target is T1, synthetic polypeptide maF1-2 (human).
T1 peptide: GSCSVADWQMPP
Kind of assay: ELISA on coated synthetic polypeptides. The method, then:
(§1) Anti-migis-α mAbs 8G7 (Igγ2b, κ) and 29C11 (Igγ1, κ) were purified from hybridoma culturing medium by using Protein A Sepharose CL-4B medium (GE Healthcare). Purified mAbs were stored in PBS at the concentration of 1 mg/ml. A mouse anti-human IgA1.Fc mAb 3C10 (Igγ1, Abcam) and mouse total IgG (Sigma-Aldrich) were used as positive and negative controls, respectively. Various migis-α-containing recombinant proteins and several irrelevant proteins were tested in ELISA. Proteins were coated at 1 μg/ml in 0.05M carbonate/bicarbonate buffers in ELISA plates at 4° C. for overnight. Plates were washed with PBST (PBS with 0.05% Tween® 20) and blocked by PBS/BSA (PBS with 1% BSA) at room temperature for 1 h. After washing with PBST, mAbs at 1 μg/ml in PBS/BSA were added into plates and incubated at room temperature for 1 hr. Plates were washed with PBST and then HRP-conjugated goat anti-mouse IgG.Fc antibodies 1:10,000 diluted in PBS/BSA were adding into plates. After incubation at room temperature for 1 hr and washing with PBST, Tetramethylbenzidine substrates (Clinical Scientific Products) were added into plates for colorimetric measurement.
(§2) Synthetic migis-αL polypeptides were further used to study binding epitopes of anti-migis-α mAbs by ELISA. Polypeptides maFL (SEQ ID NO:9), maFa (SEQ ID NO:10), maFb (SEQ ID NO:11), and maFc (SEQ ID NO:12) are fragments that represent the full length, the N-terminal part, the middle part, and the C-terminal part of migis-αL sequences (FIG. 3A). Polypeptides maF1-2 (SEQ ID NO:13), maF1-3 (SEQ ID NO:14), maF2 (SEQ ID NO:15), and maF2-1 (SEQ ID NO:16) were designed to test shorter sequences for binding activity of anti-migis-α mAbs. Polypeptides at 10 μg/ml were coated in micro-well plates for reacting and ELISA procedures were followed as described above. […] In contrast, 29C11 is capable of binding to both the N-terminal and the middle part of migis-αL sequences, and also reacting to short fragments of the N-terminal polypeptides. (FIGS. 3B-C).
(In general: An ELISA detects its analyte on a solid surface through an enzyme-linked reagent.)

Assay [2] has as its target T2, synthetic polypeptide maF1-3 (human).
T2 peptide: CSVADWQMPPPY
Kind of assay: ELISA on coated synthetic polypeptides. How it is done:
as §1, §2

Assay [3] has as its target T3, synthetic polypeptide maF2 (human).
T3 peptide: VADWQMPPPYVV
Kind of assay: ELISA on coated synthetic polypeptides. How it is done:
as §1, §2

Assay [4] has as its target T4, synthetic polypeptide maF2-1 (human).
T4 peptide: DWQMPPPYVVLD
Nature of the assay: ELISA on coated synthetic polypeptides. How it is done: as §1, §2

In assay [5] the target is T5, mα1.Fc recombinant protein (human, UniProt P01876 103-333).
T5 construct: leader/His tag/linker of the vector as for the other constructs
Nature of the assay: ELISA screening of hybridoma culture medium. The method, then: Fifty microgram of the chimeric protein was used to immunize each Balb/c mouse subcutaneously for 4-5 times in a two-week interval. Three days before cell fusion, ten microgram of the chimeric protein was injected into each mouse intravenously. The splenocytes isolated from immunized mice were fused with mouse myeloma cells FO by using polyethylene glycol 1500 (Roche). After fusion procedures, cells were grown in HAT selection medium for 10-12 days and the cultured medium was transferred for ELISA screening (detailed in the next section). […] Hybridoma clones which produce antibodies reacting to mα1.FcL-LZ and not reacting to mα1.Fc were identified as candidates by using horseradish peroxidase (HRP)-conjugated goat anti-mouse IgG.Fc antibodies (Jackson ImmunoResearch) in ELISA. To further test the binding of hybridoma candidates towards mIgA-expressing B cells, 2×10⁵ DAKIKI cells were incubated with 100 μl of cultured medium on ice for 30 min. Cells were washed with staining buffers [PBS with 2% fetal bovine serum (FBS, Invitrogen) and 0.05% sodium azide] and incubated with FITC-labeled rabbit F(ab)′₂ anti-mouse IgG antibodies (AbD Serotech) 1:400 diluted in staining buffers on ice for 30 min. After washing, cells were resuspended in 200 μl of staining buffer and subjected to flow cytometric analyses. […]

In assay [6] the target is T6, mα1.FcS expressed on Ramos cells (human, UniProt P01876 103-398).
T6 construct: also called Ramos/mα1.FcS
Nature of the assay: flow cytometry on Ramos/mα1.FcS cells, 1 µg/ml. How it is done: (§3) For flow cytometric assays in the examples, 3C10 was used as a positive control of detecting mIgA expression and a mouse anti-human mIgE mAb 4B12 (Igγ1, κ) was served as a negative control. To perform the cell staining, 10⁶ cells were washed and incubated with mAbs in 100 μl of staining buffers on ice for 30 min. Cells were subsequently washed with staining buffers and incubated with FITC-labeled rabbit F(ab)′₂ anti-mouse IgG antibodies […] 1:400 diluted in 100 μl staining buffers on ice for 30 min. After washing, cells were resuspended in 400 μl of staining buffers and subjected to flow cytometric analyses in a FACSCanto II (BD Biosciences). […] At the low concentrations (1 μg/ml) staining signals of 29C11 towards these three mIgA-expressing B cells are undetectable.
A general note: A flow cytometer gives signals particle by particle.

Assay [7] addresses T7, synthetic polypeptide maFa, N-terminal part of migis-αL (human).
T7 construct: also called the N-terminal polypeptide
T7 peptide: GSCSVADWQMPPPYVVLD
Nature of the assay: ELISA on coated synthetic polypeptides, 10 µg/ml. The method, then:
as §1
Synthetic migis-αL polypeptides were further used to study binding epitopes of anti-migis-α mAbs by ELISA. […]

In assay [8] the target is T8, mα1.FcL-456S-LZ recombinant protein (human).
T8 construct: also called mα1.FcL-LZ
T8 chain: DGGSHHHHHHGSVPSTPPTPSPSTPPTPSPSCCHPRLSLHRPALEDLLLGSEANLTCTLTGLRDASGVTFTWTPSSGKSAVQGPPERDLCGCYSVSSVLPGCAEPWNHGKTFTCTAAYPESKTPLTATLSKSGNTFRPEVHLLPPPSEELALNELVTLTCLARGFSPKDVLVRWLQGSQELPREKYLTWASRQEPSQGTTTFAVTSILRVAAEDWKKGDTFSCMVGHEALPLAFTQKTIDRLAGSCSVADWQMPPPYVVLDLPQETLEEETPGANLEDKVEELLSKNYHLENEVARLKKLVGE
Nature of the assay: ELISA, serial dilution of mAb on coated mα1.FcL-456S-LZ. The method, then:
as §1
The binding curves were analyzed by the software Prism® (GraphPad) and the equation used for calculation was shown below.

The target in assay [9] is T9, membrane-bound IgA (mIgA) on DAKIKI cells (human, UniProt P01876 1-398).
T9 construct: whole, on cells; also called mIgA-expressing B cells
Nature of the assay: flow cytometry on DAKIKI cells, 10 µg/ml against 1 µg/ml. How it is done: as §3

The target of assay [10] is mα1.FcL-456C expressed on Ramos cells (human, UniProt P01876 103-398). Nature of the assay: flow cytometry on Ramos/mα1.FcL-456S (so in the source) cells, 1 µg/ml. The method, then:
as §3

T9 sequence (P01876 whole entry): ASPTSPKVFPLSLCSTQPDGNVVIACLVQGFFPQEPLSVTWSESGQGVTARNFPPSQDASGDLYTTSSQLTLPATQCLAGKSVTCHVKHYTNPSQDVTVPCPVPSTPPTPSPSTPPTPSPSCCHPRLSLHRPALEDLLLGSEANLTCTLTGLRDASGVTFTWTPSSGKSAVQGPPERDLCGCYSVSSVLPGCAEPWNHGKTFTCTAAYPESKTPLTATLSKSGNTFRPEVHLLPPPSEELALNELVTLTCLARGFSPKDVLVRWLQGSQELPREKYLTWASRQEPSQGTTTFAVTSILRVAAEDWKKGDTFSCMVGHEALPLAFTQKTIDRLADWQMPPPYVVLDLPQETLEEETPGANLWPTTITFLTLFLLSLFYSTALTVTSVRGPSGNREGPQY

B1: anti-migis-α mAb 8G7 (antibody, V domains shown)
VH: EVQLQESGPSLVKPSQTLSLTCSVTGDSITNGYWNWIRKFPGNKLEYMGYISYSGSTYYNPSLKSRIFITRDTSKNQYYLQLNSVTTEDTAIYYCARWLGGRAYWGQGTTLIVSS
VL: DIVMTQSQKFMSTSVGDRVSVTCKASQNVGTNVVWYQQKPGQSPKTLIYSASRRFSGVPDRFTGSGSGTDFTLTISNVQSEDLAEYFCQQYNSYPLTFGAGTKLELK
notes: also called 8G7 mAb
For B1, the binding result in assay [1] is listed as “no binding (tested: 10 µg/ml peptide coated)”; in assay [2], “no binding (tested: 10 µg/ml peptide coated)”; in [3], “no binding (tested: 10 µg/ml peptide coated)”; in assay [4], “no binding (tested: 10 µg/ml peptide coated)”; in [5] it was “no binding”; in assay [7], “binds”. Further, the “fold of MFI over background against that of 29C11, (MFI8G7-MFIbackground)/(MFI29C11-MFIbackground)” value in assay [6] turned out to be 10.4 fold; in assay [10], 13.5 fold. Besides, the “fold lower concentration at half the maximum binding than 29C11” value in assay [8] is roughly 6 fold. The “fold of the increment of MFI (high minus low concentration, over background) against that of 29C11” value in assay [9] was 12.5 fold.
